Results published in US20200181677A1, “SCREENING SYSTEM AND METHODS FOR IDENTIFYING ENZYME SUBSTRATES AND MODULATORS OF ENZYME ACTIVITY” (Regents of the University of Minnesota, priority 2017, published 2020).
Entries after “also recorded” stand apart in the source; their conditions may differ.

Tests used:
PKCα catalytic domain [1] = target: T1, PKCα catalytic domain (Homo sapiens, UniProt P17252); test: Kinase activity assay (ATP consumption, Kinase-Glo Max); assay type: biochemical; conditions: for Kinase activity toward the peptide substrate, in words: 500 μM peptide, isolated catalytic domain
T1 construct: All activity assays were performed with 50 nM isolated catalytic domain in PKC Buffer; fused substrate peptide with the fluorophore next to it (N, cleaved yes); second fluorophore of the mCerulean/mCitrine pair (next to the catalytic domain) (N); FLAG; made in house; host or cells: Sf9 insect cells (pBiex1), then on-resin TEV cleavage
Experimental: All activity assays were performed with 50 nM isolated catalytic domain in PKC Buffer at 21-22° C. for 2-6 minutes. Experiments comparing the basal activity of different FRET sensors (FIG. 5A) were performed with 50 μM MBP peptide from GenScript. For all other activity experiments (FIGS. 3F, 4B, 5B, and 6B), the final peptide concentration was 500 μM. Activity was measured by monitoring ATP consumption with the Kinase-Glo Max Luminescence Assay Kit (Promega; Madison, Wis.). End-point luminescence was measured in white, 96-well plates using a M5e Spectramax spectrophotometer (Molecular Devices; San Jose, Calif.). For each experimental condition, ≥2 independent experiments were performed for ≥3 protein preparations (N≥6).
Kinase specific activity was inferred from the ATP consumed in phosphorylation reactions using the KINASE-GLO® Max Luminescence Assay Kit (Promega; Madison, Wis.). ATP depletion was monitored with the KINASE-GLO® Reagent, which uses luciferin, oxygen, and ATP as substrates in a reaction that produces oxyluciferin and light. The luminescent signal is linearly proportional to the amount of ATP remaining following the phosphorylation reaction.
Activity assays were performed using the catalytic domain (25-75 nM) and 500-μM peptide in PKC Buffer. Reactions were initiated by the addition of 250 μM ATP to a total reaction volume of 80 μL in U-bottom, white 96-well plates. Following a 3 minute incubation at 22° C., reactions were quenched and subsequent steps were performed as per instructions from the kit provider. End-point luminescence was measured in a FLEXSTATION® 3 plate reader (Molecular Devices). […] For each experimental condition, ≥2 independent measurements were performed for ≥3 protein preparations (N≥6).

PKCα catalytic domain [2] = target: T1, PKCα catalytic domain; test: Time-resolved fluorescence decay (TCSPC) of peptide-catalytic domain FRET sensors; assay type: binding; conditions: means ± SEM, N = 3; for Mol Fraction Bound / Mol Fraction Unbound: eGFP/mCherry sensors, PKC Buffer containing 100 μM ATP; for Mol Fraction Bound: A2/(A1+A2); for τ2: second lifetime of bi-exponential fit, τ1 fixed to donor linker control (2.56 ± 0.01 ns)
Experimental: FIG. 4A is a graph plotting a comparison between steady-state FRET and fractional binding for four alanine-containing peptide sensors. For fractional binding, fluorescence decay single photon counting data was fit to I(t)=A1e^−t/τ^1+A2e^−t/τ^2, where τ1 was set to the lifetime of a 10 nm ER/K linker control (see, TABLE 1). The mol fraction of the bound state(s) was calculated as A2/(A1+A2).
Time-resolved fluorescence decay measurements were taken by single photon counting (SPC-130-EM, Becker & Hickl) using a 485 nm sub-nanosecond pulse diode laser (PicoQuant), a 519 bandpass filter, and a PMH-100 photomultiplier module (Photonics Solutions) (Autry et al., J. Biol. Chem. 287:39070-39082, 2012). Sensors contained the eGFP and mCherry FRET pair, and all experiments were performed with 50-100 nM protein in PKC Buffer containing 100 μM ATP and 0.1 mg/mL BSA. Data were fit to the second exponential decay, I(t)=A1e^−t/τ^1+A2e^−t/τ^2, where τ1 was set to the lifetime of a 10 nm ER/K linker control. Each experimental condition was collected from three independent protein batches (N=3).
Time-correlated single photon counting (TCSPC) was used to test whether changes in steady-state FRET reflect changes in fractional binding of the peptide to the catalytic domain (FIG. 1). TCSPC is a method for measuring time-resolved fluorescence that provides information on complex decay kinetics and population states (Lakowicz, Principles of Fluorescence Spectroscopy, 3rd ed., Springer, New York, 2006). Using this method, the relative population of interacting to non-interacting species was measured for four peptide sensors displaying a range of steady-state FRET ratios (FIG. 2).

PKCα catalytic domain [3] = target: T1, PKCα catalytic domain; test: Steady-state FRET measurements of peptide sensors; assay type: binding; conditions: for Binding strength of the peptide to the catalytic domain (steady-state FRET ratio), in words: 10 nm ER/K linker sensors; for Peptide interaction with the catalytic domain on addition of nucleotide (ΔFRET): 100 μM compound, alanine-substituted peptide sensors
Experimental: All experiments were performed with 30-50 nM protein in PKC Buffer at 21-22° C. Samples were prepared in tubes pre-coated with 0.1 mg/mL BSA to limit protein sticking to tube walls. Protein samples were excited at 430 nm (mCer) with an 8-nm band pass, and emission monitored from 450 to 650 nm. The FRET ratio was calculated from the ratio of the emission for mCit (525 nm) to mCer (475 nm). Final concentrations of 100 μM ATP, 100 μM ADP, 100 μM Sangivamycin, or BimI were added as indicated. For each experimental condition, ≥3 independent protein batches were used and at least two replicates were measured for each independent experiment (N≥3).
Protein-protein interactions in live cells using SPASM FRET sensors have been extensively monitored as described elsewhere (Sivaramakrishnan and Spudich, supra; Swanson et al., supra; and Malik et al., J Biol. Chem. 288:17167-17178, 2013). FRET measurements provide a direct measure of the binding strength of the substrate peptides to the kinase catalytic domain (Sivaramakrishnan and Spudich, supra; and Sommese et al., J. Biol. Chem. 292:2873-2880, 2017). Before each experiment, purified sensors were centrifuged (17645 g, 4° C.) to remove any insoluble protein. All experiments were performed with 50 nM protein in PKC Buffer at 21-22° C. Samples were prepared in tubes pre-coated with BSA (0.1 mg/ml) to limit protein loss through adsorption to tube walls. FRET measurements were performed using FluoroMax-4 fluorometer (Horiba Scientific). Sensors were loaded in a quartz cuvette (1 cm path length) and excited at 430 nm with an 8-nm band pass, and emission was monitored (4-nm band pass) from 450 to 650 nm. The FRET ratio was calculated from the ratio of the emission for mCitrine (525 nm) to mCerulean (475 nm). For each experimental condition, ≥2 experimental replicates were measured for ≥3 independent protein batches (N≥6).

1: peptide substrate ADKRRSVRIGA, SEQ ID NO:4, from Kit/SCRF; Ala-substituted in FRET sensors [Peptide 1]
Kinase activity toward the peptide substrate, in words (PKCα catalytic domain [1]): high activity

2: peptide substrate RVVGGSLRGAQ, SEQ ID NO:6, from PTP1B [Peptide 2]
Kinase activity toward the peptide substrate, in words (PKCα catalytic domain [1]; listed as p2): high kinase activity

3: peptide substrate LAGGFSFKKNK, SEQ ID NO:8, from MARCKS (KLAGFSFKKNK) [Peptide 3]
Kinase activity toward the peptide substrate, in words (PKCα catalytic domain [1]): high activity

6: peptide substrate ASQKRPSQRH, SEQ ID NO:14, from Myelin Basic Protein; Ala-substituted in FRET sensors [Peptide 6]
Mol Fraction Bound (PKCα catalytic domain [2]): 0.08 ± 0.01
Mol Fraction Unbound (PKCα catalytic domain [2]): 0.92 ± 0.01
τ2 (PKCα catalytic domain [2]): 0.49 ± 0.05 ns

8: peptide substrate IVRKATLRRLL, SEQ ID NO:18, from EGF Receptor; Ala-substituted sensor form SEQ ID NO:17 [Peptide 8]
Mol Fraction Bound (PKCα catalytic domain [2]): 0.11 ± 0.01
Mol Fraction Unbound (PKCα catalytic domain [2]): 0.89 ± 0.01
τ2 (PKCα catalytic domain [2]): 0.66 ± 0.06 ns
Binding strength of the peptide to the catalytic domain (steady-state FRET ratio), in words (PKCα catalytic domain [3]): medium binding

9: peptide substrate ARKRERTYSFGHHA, SEQ ID NO:20, Optimized AKT Sub. [Peptide 9]
Binding strength of the peptide to the catalytic domain (steady-state FRET ratio), in words (PKCα catalytic domain [3]): medium binding

10: peptide substrate RRRRSIIFI, SEQ ID NO:22, Optimized PKA Sub.; Ala-substituted in FRET sensors [Peptide 10]
Kinase activity toward the peptide substrate, in words (PKCα catalytic domain [1]): poor activity
Mol Fraction Bound (PKCα catalytic domain [2]): 0.16 ± 0.01
Mol Fraction Unbound (PKCα catalytic domain [2]): 0.84 ± 0.01
τ2 (PKCα catalytic domain [2]): 0.83 ± 0.06 ns

11: peptide substrate FKLKRKGTFKKFA, SEQ ID NO:35, Optimized PKCβ Sub.; Ala-substituted sensor form SEQ ID NO:23 [Peptide 11]
Kinase activity toward the peptide substrate, in words (PKCα catalytic domain [1]): poor activity
Activity of the peptide FRET sensor for the same substrate (PKCα catalytic domain [1]; 10 nm linker sensors, 50 μM MBP peptide): much lower activity
Mol Fraction Bound (PKCα catalytic domain [2]): 0.15 ± 0.01
Mol Fraction Unbound (PKCα catalytic domain [2]): 0.85 ± 0.01
τ2 (PKCα catalytic domain [2]): 0.88 ± 0.06 ns

12: peptide substrate RRFKRQGSFFYFF, SEQ ID NO:26, Optimized PKCζ Sub. [Peptide 12]
Kinase activity toward the peptide substrate, in words (PKCα catalytic domain [1]; listed as p12): lowest kinase activity; also recorded: poor activity
Effect on catalytic turnover with low affinity-high activity peptide #6 (PKCα catalytic domain [1]; equimolar peptides #6 and #12): essentially inhibited

Nc1ncnc2c1ncn2[C@@H]1O[C@H](COP(=O)(O)OP(=O)(O)O)[C@@H](O)[C@H]1O [ADP, reference compound]
Peptide interaction with the catalytic domain on addition of nucleotide (ΔFRET) (PKCα catalytic domain [3]): also occurred

Nc1ncnc2c1ncn2[C@@H]1O[C@H](COP(=O)(O)OP(=O)(O)OP(=O)(O)O)[C@@H](O)[C@H]1O [ATP, reference compound]
Peptide interaction with the catalytic domain on addition of nucleotide (ΔFRET) (PKCα catalytic domain [3]): significant increase

CN(C)CCCn1cc(C2=C(c3c[nH]c4ccccc34)C(=O)NC2=O)c2ccccc21 [BimI, Bisindolylmaleimide I, reference compound]
Effect on the ATP-dependent substrate-kinase interaction (steady-state FRET) (PKCα catalytic domain [3]; peptide #8 and #11 sensors, 100 μM ATP, BimI titration): abrogated

NC(=O)c1cn([C@@H]2O[C@H](CO)[C@@H](O)[C@H]2O)c2ncnc(N)c12 [Sangivamycin, reference compound]
Peptide interaction with the catalytic domain on addition of nucleotide (ΔFRET) (PKCα catalytic domain [3]): also occurred

NRFARKGALRQKNV [Peptide 14]
Inhibition of ATP turnover of the catalytic domain for serine-containing peptide #14 (PKCα catalytic domain [1]; equimolar competing peptide): significantly better at inhibiting catalytic activity
Binding strength of the peptide to the catalytic domain (steady-state FRET ratio), in words (PKCα catalytic domain [3]): bound more strongly

NRFARKGDLRQKNV [Peptide S14D]
Binding strength of the peptide to the catalytic domain (steady-state FRET ratio), in words (PKCα catalytic domain [3]): decreased affinity
